# Results as given in patent US20250136719A1 (TECHNION RESEARCH AND DEVELOPMENT FOUNDATION, published 2025).
# T1: latent 65 kDa heparanase (Hpa65) (UniProt Q9Y251 36-543, limits assumed)
# T1 construct: Single-chain latent 65 kDa form coated on the ELISA plate; also called recombinant 65 kDa latent pro-heparanase; pro-heparanase
# T1 sequence (looked up): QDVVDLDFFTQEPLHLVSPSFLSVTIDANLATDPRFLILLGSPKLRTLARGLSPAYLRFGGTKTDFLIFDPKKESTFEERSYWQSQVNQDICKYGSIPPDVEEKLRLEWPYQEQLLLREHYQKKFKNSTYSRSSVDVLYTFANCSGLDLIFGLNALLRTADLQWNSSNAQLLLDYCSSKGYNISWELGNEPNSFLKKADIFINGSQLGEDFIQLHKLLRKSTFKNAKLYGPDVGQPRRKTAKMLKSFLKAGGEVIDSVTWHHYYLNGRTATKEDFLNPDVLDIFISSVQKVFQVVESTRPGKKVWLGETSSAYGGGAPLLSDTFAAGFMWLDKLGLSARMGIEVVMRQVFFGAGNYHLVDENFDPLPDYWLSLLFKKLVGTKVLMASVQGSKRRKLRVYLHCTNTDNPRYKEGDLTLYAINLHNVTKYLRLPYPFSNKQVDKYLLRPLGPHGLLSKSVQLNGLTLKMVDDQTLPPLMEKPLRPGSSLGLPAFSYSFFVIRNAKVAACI
# Biological target: T1, latent 65 kDa heparanase (Hpa65)
# Experiment: ELISA, antibody titrated on plate coated with latent 65 kDa heparanase
# Experimental: An ELISA method was applied to characterize the preferential recognition of heparanase by mAb A54 vs. control mouse IgG (FIG. 2A). For this purpose, microtiter 96-well plate was coated with latent 65 kDa heparanase (Hpa65). Purified (protein G Sepharose) mAb A54 or control mouse IgG were then added at the indicated concentrations and the extent of binding to the immobilized heparanase was determined by ELISA. […] Next, the purified A54 mAb was subjected SDS-PAGE (FIG. 2B) and Western blot (FIG. 2C, Secondary antibody: Goat Anti-Mouse Kappa-HRP) analyses to further characterize the purity, molecular weight and isotype of the antibody light and heavy chains. Lanes M1 and M2: Protein Marker; Lane 1: Reducing condition; Lane 2: Non-reducing condition; Lane P: Mouse IgG1, Kappa as a positive control. (Ab: antibody: Goat Anti-Mouse IgG-HRP). Briefly, mAb A54 was expressed in 293F cells applying the pcDNA3.4 expression vector and serum free (Expi293F) medium. The antibody isotype was characterized as IgG1-Kappa.
binder,measurement,value
"mAb A54 (antibody, IgG1, V domains shown, Murine monoclonal antibody, IgG1-Kappa; Purified on protein G from hybridoma, also expressed in 293F cells; also called A54 mAb; A54 antibody) VH: QVQLQQSGAELAKPGASVRMSCKASGYTFTNYWMHWVKQRPGQGLEWIGYINPTTGYTEYNQKFKDKATLTADKSSSTAYMQLSSLTSEDSAVYYCARGGAGYDYDEDYAMDYWGQGTSVTVSS VL: DIVLTQSPASLAVSLGQRATISCRASESVEYFGTSYMNWYQQKPGQPPKLLIYLASILESGIPARFSGSGSGTDFTLNIHPVEEEDAATYYCQQSNEDPYTFGGGTKLEIK",IC50,0.45 nM
